Assay results reported in patent publication US20070253950A1 (Pfizer, published 2007).

Columns and labels:
[1] = molecular target: T1, cynomolgus monkey RAGE, on cells (cynomolgus monkey, UniProt Q15109 23-404 (human entry)); experiment: cell-based ELISA, transfected 293 cells
T1 construct: on transfected 293 cells or endogenous in lung sections; also called 293-cyno monkey RAGE; RAGE in monkey lung
T1 chain: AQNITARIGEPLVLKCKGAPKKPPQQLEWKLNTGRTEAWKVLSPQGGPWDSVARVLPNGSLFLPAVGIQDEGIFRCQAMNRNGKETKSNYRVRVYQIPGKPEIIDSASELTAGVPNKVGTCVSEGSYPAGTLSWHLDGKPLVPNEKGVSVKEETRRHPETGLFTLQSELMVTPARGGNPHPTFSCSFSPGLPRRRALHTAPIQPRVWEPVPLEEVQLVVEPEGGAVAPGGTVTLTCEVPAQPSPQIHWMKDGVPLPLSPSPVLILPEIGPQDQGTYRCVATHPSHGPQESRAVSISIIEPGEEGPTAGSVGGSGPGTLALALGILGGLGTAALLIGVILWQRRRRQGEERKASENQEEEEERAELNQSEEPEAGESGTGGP
Method: Human embryonic kidney 293 cells (American Tissue Type Culture, Manassas, Va.) cells were plated at 5×10⁶ cells per 10 cm² tissue culture plate and cultured overnight at 37° C. The next day cells were transfected with RAGE expression plasmids (pAdori1-3 vector encoding mouse, human, baboon, cynomologus monkey or rabbit RAGE) using LF2000 reagent (Invitrogen, Carlsbad Calif.) at a 4:1 ratio of reagent to plasmid DNA using the manufacturers protocol. Cells were harvested 48 hrs post-transfection using trypsin, washed once with phosphate buffered saline (PBS), then suspended in growth media without serum at a concentration of 2×10⁶ cells/ml.
Primary antibodies at 1 μg/ml were serially diluted at 1:2 or 1:3 in PBS containing 1% bovine serum albumin (BSA) in a 96-well plate. RAGE-transfected 293 cells or control parental 293 cells (50 μl) at 2×10⁶ cells/ml in serum-free growth medium were added to U-bottom 96 well plate for a final concentration of 1×10⁵ cells/well. The cells were centrifuged at 1600 rpm for 2 minutes. The supernatants were gently discarded by hand with a one-time swing and the plate was patted gently to loose the cell pellet. The diluted primary anti-RAGE antibodies or isotype-matching control antibodies (100 μl) in cold PBS containing 10% fetal calf serum (FCS) were added to the cells and incubated on ice for 1 hour. The cells were stained with 100 μl of diluted secondary anti-IgG antibody HRP conjugates (Pierce Biotechnology, Rockford, Ill.) on ice for 1 hour. Following each step of primary antibody and secondary antibody incubations, the cells were washed 3 times with ice-cold PBS. 100 μl of substrate TMB1 component (BIO FX, TMBW-0100-01) was added to the plate and incubated for 5-30 minutes at room temperature. The color development was stopped by adding 100 μl of 0.18M H₂SO₄. The cells were centrifuged and the supernatants are transferred to a fresh plate and read at 450 nm (Soft MAX pro 4.0, Molecular Devices Corporation, Sunnyvale, Calif.).

[2] = molecular target: T2, human RAGE-strep tag fusion protein (human, UniProt Q15109 23-344); experiment: BIACORE, antibody coated on CM5 chip, hRAGE-SA in flow
T2 construct: monomeric soluble human RAGE; also called hRAGE-SA; soluble human streptavidin-tagged RAGE

[3] = molecular target: T2, human RAGE-strep tag fusion protein; experiment: as above; remark: listed apart in the source
Method: The assays were performed by coating antibodies onto a CM5 BIA chip with 5000-7000 RU.

[4] = molecular target: T3, human RAGE-Fc fusion protein (human, UniProt Q15109 23-344); experiment: antibody competition ELISA on hRAGE-Fc; competitor: biotinylated XT-M4
T3 construct: amino acids 1-344 of human RAGE appended to the Fc domain of human IgG; also called hRAGE-Fc; huRAGE-Fc
Method: ELISA plates were coated overnight with 1 ug/ml human RAGE-Fc. […] Briefly, plates were coated overnight with 1 ug/ml human RAGE-Fc.

[5] = molecular target: T3, human RAGE-Fc fusion protein; experiment: ligand competition ELISA, panel 'Blocks hRAGE-Fc interaction with S100-B'; blocked ligand S100-B
[6] = molecular target: T2, human RAGE-strep tag fusion protein; experiment: BIACORE capture assay: hRAGE-SA over antibody captured on anti-human Fc; steady state affinity; FC2
Method: (§1) The assays were performed by coating anti-human Fc antibodies onto a CM5 BIA chip with 5000 RU (pH 5.0, 7 min.) in flow cells 1-4. Each antibody was captured by flowing at 2.0 μg/ml over the anti-Fc antibodies in flow cells 2-4 (flow cell 1 was used as a reference).

[7] = molecular target: T2, human RAGE-strep tag fusion protein; experiment: BIACORE capture assay: hRAGE-SA over antibody captured on anti-human Fc; steady state affinity; FC3
Method: as §1

[8] = molecular target: T2, human RAGE-strep tag fusion protein; experiment: BIACORE capture assay: hRAGE-SA over antibody captured on anti-human Fc; 1:1 Langmuir global fit; FC4
Method: as §1

[9] = molecular target: T2, human RAGE-strep tag fusion protein; experiment: BIACORE capture assay: hRAGE-SA over antibody captured on anti-human Fc; 1:1 Langmuir global fit; average of FC2-FC4
Method: as §1

B1: chimeric XT-M4 (antibody, V domains shown)
VH: EVQLVESGGGLVQPGRSLKLSCVVSGFTFNNYWMTWIRQTPGKGLEWVASINNSGDNTYYPDSVKDRFTISRDNAKSTLYLQMNSLRSEDTATYYCTRGGDITTGFDYWGQGVMVTVSS
VL: DIQMTQSPSSMSVSLGDTITITCRASQDVGIYVNWFQQKPGKSPRRMIYRATNLADGVPSRFSGSRSGSIYSLTISSLESEDVADYHCLEFDEHPLTFGSGTKVEIK
modifications: N-linked oligosaccharide at Asn52 (CDR2) on part of the heavy chains
notes: rat XT-M4 variable regions fused to human kappa light chain and human IgG1 heavy chain constant regions; L234A and G237A in the human IgG1 Fc region; also called chimeric antibody XT-M4; XT-M4-A-1
EC50 [1]: ~1.66 nM
Kd [2]: ~5.5 nM
Ka [3]: 1.77e+08 M⁻¹
Kd [3]: 5.66 nM
koff [3]: 0.0248 s⁻¹
kon [3]: 4.39e+06 M⁻¹ s⁻¹
IC50 (read off the curve) [4]: ~0.4 µg/mL
IC50 (read off the curve) [5]: ~0.08 µg/mL
Kd [6]: 11 nM
Kd [7]: 11 nM
Kd [8]: 8.2 nM
koff [8]: 0.05 s⁻¹
kon [8]: 6.1e+06 M⁻¹ s⁻¹
Kd [9]: 7.91 nM
koff [9]: 0.0351 s⁻¹
kon [9]: 4.41e+06 M⁻¹ s⁻¹
